Results reported in patent US20260125455A1 (CLEVELAND CLINIC FOUNDATION, published 2026).

Assays:
[1] = molecular target: T1, human complement protein C6 (human, UniProt P13671 22-934); assay: C6-binding ELISA, A650 nm; sample 'PBS' (28 days at 37 C)
T1 construct: also called human C6; C6 antigen
Description: For the serum stability assessment, samples of the purified candidate antibodies are normally incubated in mouse, human and cynomolgus serum at 37 C for 28 days and then tested in an antigen-binding ELISA. Since the anti-C6 antibodies are expected to bind to both human and cynomolgus C6 but not mouse C6, we anticipated that incubating in human or cynomolgus sera would reduce ELISA binding due to occupation of the antibody binding sites by C6 protein from the sera. Therefore, the chimeric and humanized antibodies were tested with human and mouse sera and with human sera from which the C6 protein has been depleted. […]
Binding ELISAs used Nunc Maxisorp 384-well plates, wells coated with C6, C5b,6 complex or C5 (Complement Technology Inc, TX) and goat anti-human IgG (Fab specific) peroxidase secondary antibodies (Sigma-Aldrich, A0293) for detection. For the thermal stability assay, IgG supernatants were diluted to their EC₈₀ concentration, incubated at different temperatures for 10 min and C6 binding measured by ELISA with the binding signal plotted against temperature. Kinetics of C6 binding were measured by capturing antibodies from supernatant samples using Protein G biosensors and performing a 20 min association step with 2.5 nM C6 and a 20 min dissociation step using the Octet RED96. […]

[2] = molecular target: T1, human complement protein C6; assay: BLI (Octet RED384), antibody on Protein G biosensors, C6 0.16-10 nM, 1:1 fit, experiment 1
Description: (§1) The binding of the purified chimeric molecules, MoC601 HuG4K and MoC601 HuG1KFab, was also confirmed by ELISA, where the anti-human IgG (Fab-specific) secondary reagent was used. The control mouse antibody bound as previously (EC₅₀ 0.11 nM). The EC₅₀ for purified MoC601 HuG4K (0.27 nM) was similar to that obtained for the MoC601 HuG4K supernatant sample above. […] The EC₅₀ value for the Fab molecule (0.48 nM) was higher than for the antibody, which would be expected since the Fab is unable to bind bivalently to the antigen on the well. A C6-binding assay was also set up on the Octet RED384 instrument. […] However, MoC601 MoG1K could be stably loaded onto anti-mouse Fc (AMC) biosensors. Concentrations of the mouse and chimeric antibodies were adjusted to give similar levels of loading on to the AMC and
Protein G biosensors respectively in subsequent experiments. There was no non-specific binding of C6 protein to unloaded sensors or sensors loaded with an isotype control antibody. A full kinetic experiment was run for purified MoC601 MoG1K and MoC601 HuG4K antibodies using seven concentrations of C6 (0.16-10 nM) and association and dissociation steps of 20 and 15 minutes respectively. The mouse and chimeric datasets were processed by subtracting the no antigen controls and the data were fitted to a 1:1 binding model. […]

[3] = molecular target: human complement protein C5 (human, UniProt P01031 19-673; P01031 678-1676); assay: ELISA, C5-coated wells
[4] = molecular target: T1, human complement protein C6; assay: C6-binding ELISA, A650 nm; sample 'PBS' (28 days at 37 C); remark: listed apart in the source
Description: For the serum stability assessment, samples of the purified candidate antibodies are normally incubated in mouse, human and cynomolgus serum at 37 C for 28 days and then tested in an antigen-binding ELISA. Since the anti-C6 antibodies are expected to bind to both human and cynomolgus C6 but not mouse C6, we anticipated that incubating in human or cynomolgus sera would reduce ELISA binding due to occupation of the antibody binding sites by C6 protein from the sera. Therefore, the chimeric and humanized antibodies were tested with human and mouse sera and with human sera from which the C6 protein has been depleted. The C6-binding ELISA was then used to compare the binding abilities of the C601 antibodies that had been incubated in the 3 different sera to antibody samples that were incubated in PBS at 37 C or kept at 4 C (non-incubated).
The Uncle instrument (Unchained Labs) was used to monitor unfolding via intrinsic fluorescence and aggregation by static light scattering across a temperature gradient to obtain melting temperatures (Tₘ). […] Isoelectric points were determined by capillary isoelectric focusing using a PA800+ (Beckman Coulter). […]

[5] = molecular target: T1, human complement protein C6; assay: ELISA, expression supernatant, anti-human IgG Fc-specific detection
Description: The chimeric molecules, MoC601 HuG4K and MoC601 HuG1KFab, were tested for C6 binding in the form of expression supernatants. In this experiment, the human molecules were detected with an HRP-conjugated goat anti-human kappa chain reagent, which gave relative low signals. However, the binding of both chimeric molecules to C6 was confirmed. The EC₅₀ value for MoC601 HuG4K (0.43 nM) was higher than that of the mouse antibody (0.07 nM), though this was lower than in previous experiments. A further experiment was performed to find a more suitable anti-human antibody detection reagent. MoC601 HuG4K from expression supernatant was detected with three different secondary antibodies. Both anti-human IgG Fc-specific and Fab-specific detection gave higher signals than the anti-kappa chain reagent but the Fc-specific detection yielded a very low EC₅₀ (0.03 nM).

[6] = molecular target: T1, human complement protein C6; assay: BLI (Octet RED384), antibody on Protein G biosensors, C6 0.27-5 nM, 1:1 fit, experiment 2
Description: as §1
Protein G biosensors respectively in subsequent experiments. There was no non-specific binding of C6 protein to unloaded sensors or sensors loaded with an isotype control antibody. […] The mouse and chimeric datasets were processed by subtracting the no antigen controls and the data were fitted to a 1:1 binding model. Binding curves giving Req/Rₘₐₓ ratios>90% or showing poor fitting were excluded from analysis. A second full kinetic experiment was performed with an adjusted concentration range (six points, 0.27-5 nM) and an extended dissociation step of 20 minutes.

T1 sequence (P13671 22-934 limits assumed): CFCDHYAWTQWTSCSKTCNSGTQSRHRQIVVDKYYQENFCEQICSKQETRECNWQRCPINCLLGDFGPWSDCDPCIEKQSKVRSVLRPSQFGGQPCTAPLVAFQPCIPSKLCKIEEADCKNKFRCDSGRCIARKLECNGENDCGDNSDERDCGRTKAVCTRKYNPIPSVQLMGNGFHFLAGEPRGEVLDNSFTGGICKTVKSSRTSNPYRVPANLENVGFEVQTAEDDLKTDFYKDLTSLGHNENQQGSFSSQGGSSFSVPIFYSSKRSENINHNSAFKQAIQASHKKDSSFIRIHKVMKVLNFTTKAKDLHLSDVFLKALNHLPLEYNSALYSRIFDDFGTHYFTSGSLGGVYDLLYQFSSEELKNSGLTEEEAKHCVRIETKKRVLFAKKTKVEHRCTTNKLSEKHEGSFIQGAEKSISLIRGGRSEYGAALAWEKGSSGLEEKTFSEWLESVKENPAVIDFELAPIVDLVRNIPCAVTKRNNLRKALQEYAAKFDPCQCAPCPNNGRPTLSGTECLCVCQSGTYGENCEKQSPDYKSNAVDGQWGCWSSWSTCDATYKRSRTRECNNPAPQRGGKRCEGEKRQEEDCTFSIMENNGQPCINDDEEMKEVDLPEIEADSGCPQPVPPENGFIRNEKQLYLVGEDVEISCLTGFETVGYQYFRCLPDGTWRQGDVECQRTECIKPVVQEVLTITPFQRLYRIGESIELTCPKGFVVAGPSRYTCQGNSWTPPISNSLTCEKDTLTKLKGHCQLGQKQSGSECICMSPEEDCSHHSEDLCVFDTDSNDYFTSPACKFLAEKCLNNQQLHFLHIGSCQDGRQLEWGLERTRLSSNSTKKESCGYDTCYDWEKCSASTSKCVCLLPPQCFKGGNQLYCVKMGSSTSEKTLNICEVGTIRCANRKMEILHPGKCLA
Chain of human complement protein C5 (P01031 19-673 limits assumed, chain 1 of 2): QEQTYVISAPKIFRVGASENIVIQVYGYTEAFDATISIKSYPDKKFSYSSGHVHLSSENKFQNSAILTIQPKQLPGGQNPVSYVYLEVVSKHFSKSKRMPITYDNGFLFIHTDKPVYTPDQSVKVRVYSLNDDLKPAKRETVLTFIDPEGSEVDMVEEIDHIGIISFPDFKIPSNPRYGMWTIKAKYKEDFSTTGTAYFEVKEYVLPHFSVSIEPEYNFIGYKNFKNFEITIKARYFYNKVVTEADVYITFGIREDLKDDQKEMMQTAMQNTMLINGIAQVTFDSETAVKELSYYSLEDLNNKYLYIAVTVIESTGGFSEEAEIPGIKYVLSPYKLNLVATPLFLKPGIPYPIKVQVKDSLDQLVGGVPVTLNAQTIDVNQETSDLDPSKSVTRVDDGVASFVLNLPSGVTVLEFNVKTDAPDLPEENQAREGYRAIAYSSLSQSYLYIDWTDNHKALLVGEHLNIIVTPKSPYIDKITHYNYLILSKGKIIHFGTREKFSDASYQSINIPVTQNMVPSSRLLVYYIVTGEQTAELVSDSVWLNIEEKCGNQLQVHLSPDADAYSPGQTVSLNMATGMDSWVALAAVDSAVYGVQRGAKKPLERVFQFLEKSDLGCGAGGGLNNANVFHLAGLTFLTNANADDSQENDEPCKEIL
Chain of human complement protein C5 (P01031 678-1676 limits assumed, chain 2 of 2): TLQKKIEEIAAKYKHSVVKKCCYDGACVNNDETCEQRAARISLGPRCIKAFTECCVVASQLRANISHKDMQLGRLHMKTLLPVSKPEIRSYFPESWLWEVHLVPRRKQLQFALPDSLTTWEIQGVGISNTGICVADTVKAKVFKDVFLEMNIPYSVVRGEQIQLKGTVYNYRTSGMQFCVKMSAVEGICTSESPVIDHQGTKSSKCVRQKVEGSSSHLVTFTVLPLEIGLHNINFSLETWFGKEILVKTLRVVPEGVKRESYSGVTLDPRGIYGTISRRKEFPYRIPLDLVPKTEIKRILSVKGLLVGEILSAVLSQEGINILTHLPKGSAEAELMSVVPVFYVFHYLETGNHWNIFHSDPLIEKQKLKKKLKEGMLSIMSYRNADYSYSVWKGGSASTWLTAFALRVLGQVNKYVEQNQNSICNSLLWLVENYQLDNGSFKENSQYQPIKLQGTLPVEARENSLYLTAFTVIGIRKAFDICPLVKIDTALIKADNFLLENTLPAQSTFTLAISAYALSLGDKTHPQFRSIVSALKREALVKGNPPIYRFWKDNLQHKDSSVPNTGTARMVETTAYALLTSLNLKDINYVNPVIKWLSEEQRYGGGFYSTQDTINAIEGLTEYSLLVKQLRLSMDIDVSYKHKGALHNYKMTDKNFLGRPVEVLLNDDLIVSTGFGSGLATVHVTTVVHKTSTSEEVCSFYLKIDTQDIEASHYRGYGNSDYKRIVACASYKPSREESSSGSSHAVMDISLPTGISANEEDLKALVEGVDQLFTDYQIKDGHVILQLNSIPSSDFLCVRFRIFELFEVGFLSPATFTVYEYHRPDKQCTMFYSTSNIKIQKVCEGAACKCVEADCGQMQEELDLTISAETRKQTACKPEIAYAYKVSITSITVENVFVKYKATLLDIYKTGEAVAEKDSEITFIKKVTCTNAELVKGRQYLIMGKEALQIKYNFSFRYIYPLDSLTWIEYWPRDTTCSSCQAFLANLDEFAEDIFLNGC

B1: C601HFKC4 HuG4K (antibody, human IgG4 S228P, kappa)
heavy: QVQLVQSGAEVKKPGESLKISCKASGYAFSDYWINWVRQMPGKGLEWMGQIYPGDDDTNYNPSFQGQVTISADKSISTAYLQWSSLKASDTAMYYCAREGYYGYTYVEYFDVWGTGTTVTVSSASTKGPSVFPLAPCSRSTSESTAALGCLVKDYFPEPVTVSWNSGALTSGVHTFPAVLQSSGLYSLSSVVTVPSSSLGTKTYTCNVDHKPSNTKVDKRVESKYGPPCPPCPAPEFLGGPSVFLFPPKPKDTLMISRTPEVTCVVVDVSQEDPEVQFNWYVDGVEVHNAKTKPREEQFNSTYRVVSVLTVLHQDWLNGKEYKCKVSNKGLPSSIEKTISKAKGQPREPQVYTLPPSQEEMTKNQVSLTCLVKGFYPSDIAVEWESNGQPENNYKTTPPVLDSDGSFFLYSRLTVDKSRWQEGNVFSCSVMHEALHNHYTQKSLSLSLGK
light: QIVLTQSPATLSLSPGERATLSCRASSSVSYLHWYQQKPGQSPRLWIYDTSKRATGIPARFSGSGSGTDYTLTISSLEPEDFAVYYCQQWTSNPLTFGQGTKLEIKRTVAAPSVFIFPPSDEQLKSGTASVVCLLNNFYPREAKVQWKVDNALQSGNSQESVTEQDSKDSTYSLSSTLTLSKADYEKHKVYACEVTHQGLSSPVTKSFNRGEC
notes: also called 3713; clone 3713
EC50 [1]: 0.19 nM

B2: MoC601 HuG4K (chimeric C601 antibody) (antibody, human IgG4 S228P, kappa, V domains shown)
VH: QVQLQQSGAELVKPGASVKISCKASGYAFSDYWMNWVKQRPGKGLEWIGQIYPGDDDTNYNGKFKGKATLTADKSSSTAYMQLSSLTSEDSAVYFCAREGYYGYTYVEYFDVWGTGTTVTVSS
VL: QIVLTQSPAIMSVSPGEKVTLTCSASSSVSYMHWYQQKSGTSPKRWIYDTSKLASGVPARFSGSGSGTSYSLTISSMEAEDAATYYCQQWTSNPLTFGAGTKLELRR
notes: also called chimeric antibody; chimeric 1C9
Kd [2]: 0.36 nM | kon [2]: 690000 M⁻¹ s⁻¹ | binding result [3]: no binding | EC50 [4]: 0.19 nM | EC50 [5]: 0.03 nM | Kd [6]: 0.35 nM | kon [6]: 690000 M⁻¹ s⁻¹
